Experiment: label from the status in PepcDB records
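Further: failed if final PepcDB status was selected cloned or expressed and not failed if soluble or beyond.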

Sequence | protein production
MRLSPAPLKLSRTPALLALALPLAAALAFSDETLDKVPKSEGYCSRILRAQGTRREGYTEFSLRVEGDPDFYKPGTSYRVTLSAAPPSYFRGFTLIALRENREGDKEEDHAGTFQIIDEEETQFMSNCPVAVTESTPRRRTRIQVFWIAPPAGTGCVILKASIVQKRIIYFQDEGSLTKKLCEQDSTFDGVTDKPILDCCACGTAKYRLTFYGNWSEKTHPKDYPRRANHWSAIIGGSHSKNYVLWEYGGYASEGVKQVAELGSPVKMEEEIRQQSDEVLTVIKAKAQWPAWQPLNVRAAPSAEFSVDRTRHLMSFLTMMGPSPDWNVGLSAEDLCTKECGWVQKVVQDLIPWDAGTDSGVTYESPNKPTIPQEKIRPLTSLDHPQSPFYDPEGGSITQVARVVIERIARKGEQCNIVPDNVDDIVADLAPEEKDEDDTPETCIYSNWSPWSACSSSTCDKGKRMRQRMLKAQLDLSVPCPDTQDFQPCMGPGCSDEDGSTCTMSEWITWSPCSISCGMGMRSRERYVKQFPEDGSVCTLPTEETEKCTVNEECSPSSCLMTEWGEWDECSATCGMGMKKRHRMIKMNPADGSMCKAETSQAEKCMMPECHTIPCLLSPWSEWSDCSVTCGKGMRTRQRMLKSLAELGDCNEDLEQVEKCMLPECPIDCELTEWSQWSECNKSCGKGHVIRTRMIQMEPQFGGAPCPETVQRKKCRIRKCLRNPSIQKLRWREARESRRSEQLKEESEGEQFPGCRMRPWTAWSECTKLCGGGIQERYMTVKKRFKSSQFTSCKDKKEIRACNVHPC | failed
MPDTPAEGYGNTLSSLALDHNWRTIYPLGAYQLSGLAWVDPQALWLRQLPRLPFCQATLGASFLALDRVRGFILLINGENDHSEILNPYDLEPFLDANGLCLYRETLWFCRDTWLYRCHLPDWHVEKMLECRYPIYGVAVDETGIYVACQKSGYIHCFDETGREQYRLSAPGIGCENLALKDGYLWVSDRLEQSIYCLDRHSGHVEWVALTPFAQPTAFTFDATGQLWVAYGGEEAYLRDNPNNREAPLEIDYRDICLIHPLLYHTHREQHYTLSNGYLIEMAYVEELSPLDALHLDNLEWRIALPANSPRQKLLRVEPVGTPFRLETVADQQVAVFDFPELRPYEARLFGWRAWLEVRGMKYHLSFDNIDETQPLPSEFAAQYLVDNDELAMDQPIVQEAAREAVGTETNILRKMLKIRNYVYDRLSYAMRPTIETPDVVLKRGTGSCGEYVGVLLALARLNGIACRTVGRYKCPPYPQKRGIPLQPTYNHVWLEFYVPGVGWVPMESNPDDVVERGPYPTRFFMALPWYHVEVGKGIRFETTNYRDRGVRLGDLALNHVRFTIHSELPPLLLEHHHHHH | failed
MDVEDYITLFLSLWIIASALAVKSVDVFLTLTLIGLLITLEVGGLFLSKEQKENLQPLIEILLLVFAVIVVKKVYEVLSG | failed
TARKCLLEKVEVITGEEAESNVLQMQCKLFVFDKTSQSWVERGRGLLRLNDMASTDDGTLQSRLVMRTQGSLRLILNTKLWAQMQIDKASEKSIHITAMDTEDQGVKVFLISASSKDTGQLYAALHHRILALRSRVE | not failed
MAEASATEPERPDQESADDAVIATRALTKRYRGGQLAVDGLDLTVPAGSVFGFLGPNGSGKTTTIRMLMGLIEPTSGSARVLGRPMPRAARAVLPRVGALIEGPALYGFLSGRDNLLRYDAADPTADPRTRRERVAAALDRVGLAAAGGKKAKAYSLGMKQRLGLAAALLQPRRLLVLDEPTNGLDPQGMREIRSLVRELASDGTTVFLSSHLLDEIEQVCTHAAVMAQGRLITQGAVADLAAGARGRLVVTTPDAGDAARVLKEQGAADVVVDGDRVTAEPPERDLAEVNAALVAARVRVRGFVVERASLEDAFVALTGEGFDVAG | failed
MAKNTLSFVCQNCGAAYNRWQGKCESCGEWNTLAEEDTSGSVPVSIRSKRKGRTFALESLAGKSPDAPRLSSGMTELDRVTGGGFVRGSVLLVGGDPGIGKSTLLTQATSLMARAGHRIVYISGEEAIAQVRLRAERLGLSDAPVQLAAETSVEDIVSTLSEGAVPRLIVIDSIQTMWTDTVESAPGTVTQVRASAQALIRFAKKTGAAIILVGHVTKDGQIAGPRVVEHMVDAVMSFEGEGSQQFRILRAVKNRFGPTDEIGVFEMTGLGLREVTNPSELFLSERDLGTPGTAVFAGIEGTRPVLVELQALVAPTSLGTPRRAVVGWDPSRLSMVLAVLEAHCGVKLSGHDVYLNVAGGLRIHEPAADLAAAAALVSSLVNAQLPTDAVYFGEISLSGVVRPVAQTPARLKEAAKLGFQRAVLPESARGEAGGDAGLSLNAVNSLTTLVAEIAARGSRRGESGGSAEKNATPARFRRGEGLEHHHHHH | failed
MSDFLQTTHLIIILCFLQQFLCTRMDIVIWLTCTTVPLSRRGRIGLGGSVILHVSDIHCSLRRLEDIISSLPVKPSTVAATGDFECEKAAVAIVEWSRREGVPLVAVTGNLDHAGVRRVLRSAGVLMDGRVDRVGGLVFGGVGGMDPRTSMEMLLRSLESSGLTVDVLLTHHPPHGVLDTTFAGVRAGLHDLRSLVDSLKPRAHLFGHIHESPGIESIGGTVFVNPGPAYEGRYALVRILGSVVKAELYTA | failed
KNRIGTKALNFTYTLASGAQGSLYQLKAEYLLLFINNPGCQACTETIEGLKNAPIINQLLQEKKLVLLSIYPDEELDEWKKHLSEFPNEWINGYDKKFTIKEEQVYDLKAIPTLYLLDKDKTVLLKDATAPAIEAYLMQH | not failed
MTCHNAAGALEPTGSAAKTLPDGLHALMTAEELAFFARFGRLREVSAGQSLFERGAVGTQMYIVVSGQIDLDFGEDLMLKHLGPGEFFGELGLLIGDHARSAGASASTDSRLIELAHDDFQRLVDQDPSMVAHFLRRSIVRVVNNEQLLIRQLRRRNHDLEAALDNLYVTSHQLNHTEELSRTDELTGLHNRRGLALHLQECRRAGHVPGVGLILIDCDRFKRINDEFGHLAGDRVLQNVAHALRSVIAEGDLACRLGGDEFCVLVAQGTSELVHHIGECIVRAVEARLCNGQGEQGCSVSVGSCMIDADAAWNDWYTLADSALYEAKRQGGNVLCMQETLALDQPPASGHR | failed
MNRSVRLITIALLLAALASLTYAVVRPFLVSIGWAVFVSYVAWPLHAWSQRRFEGRKTLSALVTTALLGSVVLAPLIWLAVLLQGEVSELIRSLPDWLEQKPRLPDFVSHIPYFGNELQAVVDQFEDLHGLLKRHAPEWVRRLGSPVLGIMTTLVQNAAVLFMTLFTLFFLFRDGLQLATDVRRVFTRVLGERLKGYFATIEATVKAVLYGIVLTALAQGFLAGLGYWIVGVKAPIVLGIATTLIAMIPFGTPFAWGSVSIWLLLQGETWAGVSLALWGTLVISWIDNIIRPLVISSATHIPFVLVMFGVLGGLASFGFIGLVLGPVILAMALAVWREWLQQVREAGLRGEDGSGTGPGERR | failed
MMIVYKGEKMQFIRVNTLKINPEVLKKRLENKGVVLEKTFLDYAFEVKKSPFSIGSTPEYLFGYYMPQSISSMIPPIVLNPREDDFILDMCAAPGGKTTHLAQLMKNKGTIVAVEISKTRTKALKSNINRMGVLNTIIINADMRKYKDYLLKNEIFFDKILLDAPCSGNIIKDKNRNVSEEDIKYCSLRQKELIDIGIDLLKKDGELVYSTCSMEVEENEEVIKYILQKRNDVELIIIKANEFKGINIKEGYIKGTLRVFPPNEPFFIAKLRKI | not failed
MITETQLTAIQTYALQKLAHDHSGHGRDHLQRVNRLARRLAKDEGANLNLTLAAAWLHDVIDDKLMANPAKAHQDLIVQLNAQNVTADDQTAIFAIIDHMSFSKSFNGPQKLSLEGQVVQDADRLDAIGAIGIARALYYSGHVGEKIYDPAIAPREHMTREQYRHQPGTAINHFYEKLFKLAALMNTDTAKALAAHRTAVMHEFVDQFKAEWTADDKALEHHHHHH | not failed
AESLSGLSLKLVKKEPRQLELTWAGSRPRNPGGNLSYELHVLNQDEEWHQMVLEPRVLLTKLQPDTTYIVRVRTLTPLGPGPFSPDHEFRTSPP | not failed
MKNPQSKADDILQCARTLIIRGGYNSFSYADISQVVGIRNASIHHHFPSKSDLVCKLVSQYRQEAEAGIAELEKNISDPLEQLRAYIGYWEGCIADATHPFCVCALLASEIPVLPETVVLEVRAHFRSLSDWLTAVLERGIAQGRLVLTGTARANAEIFMATVHGAMLSARAHGDAATFGAITRPMLERITA | not failed
MDRGEQGLLRTDPVPEEGEDVAATISATETLSEEEQEELRRELAKVEEEIQTLSQVLAAKEKHLAEIKRKLGINSLQELKQNIAKGWQDVTATSAYKKTSETLSQAGQKASAAFSSVGSVITKKLEDVKNSPTFKSFEEKVENLKSKVGGTKPAGGDFGEVLNSAANASATTTEPLPEKTQESL | failed
MKLAEALILRADLQKELMSLKNRINQNLLVQEGEKPSENPYTLYDEILLKVSELEGLILKINKTNSNYITSNNESISDLIVKRDMLGKKISILKEIAEEATVKVNRYSQTEIKIFSAMKVDQLQREINKYSKEYRELDTKLQGLNWTIDLME | failed
MKNIEKLEQSLTYEFKDKNLLIHALTHKSFKKSYNNERLEFLGDAVLDLVVGEYLFHKFAKDAEGDLSKLRAALVNEKSFAKIANSLNLGDFILMSVAEENNGGKEKPSILSDALEAIIGAIHLEAGFEFAKTIALRLIEKNFPQIDAKILIKDYKTKLQEITQGKIGQTPQYETVRAFGPDHLKQFEIALMLDGKELARAIAGSKKEAQQMAAKIALEKLGAL | not failed
MMEKIMEYLQLSDEVVDDGEAPRVEEFLGEGKSFYENFSLRGIRVNRVEPGFISCSFKVPLRLTDRDKNLANGAIANLVDEVGGALVHGEGLPMSVSVDMSIAFLSKAKLGEELEITSRLLGERGGYKGTIVVVRNKMTGEIIAEGRHSMFGRQASKL | failed
MQDFDFSFNPKACEGCGAKCCVGESGYIFLNIQEMQQISAFLKLELEEFSQKYVKKVGYKFSLLEKDAKELGLACVFLDLETKKCQIYSVRPKQCQTFPFWEGVKTFSKEQKEAFCQSCPGITQKTKETKVR | failed
MRRFLLSAAKILVSAALLYLALRKTDFAALAARIDATSFGWLAAAVAATIFQLFVNAVRWRAIGACCEAPLTTGRSMRYAMIGSFFNQTLPSAIGGDAVRVWLLARAGAGWRAATYSVFVDRATGLIALSAIIFVTLPWTLRLIDNADGRLGLMLLDFAALGAGVVFLTLPFLRFGLLDRIWATRHMRGCSEVALKALSSPKSAVILIATSLIIPILAVVIAWCVARAIESPSSFVQLFELVPPIMLITMIPISIAGWGVREASMGLAFGYAGLNPSDGVAVSLLFGAVYFVVGGIGGLIWIMSAEKAAKGDAPIEVPE | failed
MEHREKCTRCGQCLEVCSRYEDLGVLDRLYGYLDGSSNIDSESLLRCLTCGLCISACPENLGIKPLISPSRQKWINENGLSERLEHHHHHH | failed
MTRVDVVTRTLPPNEVSEANPWDTDRFWTVPNVLSVIRLIGVPIFLWLALGPRADGWAVAVLAVAGLTDWLDGRIARRWHQVSRIGQMLDPVADRLYIFATVIALTLRDVIPLWLVIVLIARDVCMACLMPALRTRGFTSLPVHFVGKAATFCLLYSFPLVLLGRFGTGGWTACRVLGWAFAVWGTGLYWWAFFLYLVQTIRIVRTLPRISSRGEYS | failed
MTTIRVENLSKIFKKGKTEVKAVDNVSITIDSGMAFGVLGPSGHGKTTFLRLIAGLEEPTSGYIYFDNEAVSSPRRVMMSPEKRGIAMVFQNWALYPNMTVFDNIAFPLKLAKVPKDKIENKVKEVSEELGLSGVLNRYPKELSGGQMQRTAIARALVKDPKVLLLDEPFSNLDAQIRESARALVRKIQRERKLTTLIVSHDPADIFAIANKAGVIVNGKFAQIGTPTEIYEYPATDLIARLTGEINLIQAKIIENNAIIANLKVPLNNMELKGQSNIVIGLRPDDLTLSDTLLDKYIDMGIVKVKLVSYGAGIFKIVVSPITDENIDIIVDAEEPLETGIETHLLAKPNKVKIFDLNGSNLITSKTQIIK | failed

— a protein production outcome set (Wang et al. 2014)
